In publication PMC2935574 (The Journal of Cell Biology, 2010):

Target: T1, MIS12 complex (full-length MIS12C) (human, UniProt Q9H081 1-205; Q6P1K2 1-205; Q9H410 1-356; Q96IY1 1-281)
T1 sequence (looked up) 1: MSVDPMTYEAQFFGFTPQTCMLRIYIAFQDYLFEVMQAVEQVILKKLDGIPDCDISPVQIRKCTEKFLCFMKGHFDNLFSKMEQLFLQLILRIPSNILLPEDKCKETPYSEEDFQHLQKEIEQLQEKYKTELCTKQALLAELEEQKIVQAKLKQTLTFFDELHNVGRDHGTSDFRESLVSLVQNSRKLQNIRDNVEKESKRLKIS
T1 sequence (looked up) 2: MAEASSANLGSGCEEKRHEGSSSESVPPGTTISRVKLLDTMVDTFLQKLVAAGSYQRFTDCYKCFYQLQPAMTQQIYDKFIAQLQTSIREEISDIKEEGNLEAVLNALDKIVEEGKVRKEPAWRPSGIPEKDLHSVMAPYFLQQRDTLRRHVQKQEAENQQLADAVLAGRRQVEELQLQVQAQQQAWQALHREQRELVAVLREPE
T1 sequence (looked up) 3: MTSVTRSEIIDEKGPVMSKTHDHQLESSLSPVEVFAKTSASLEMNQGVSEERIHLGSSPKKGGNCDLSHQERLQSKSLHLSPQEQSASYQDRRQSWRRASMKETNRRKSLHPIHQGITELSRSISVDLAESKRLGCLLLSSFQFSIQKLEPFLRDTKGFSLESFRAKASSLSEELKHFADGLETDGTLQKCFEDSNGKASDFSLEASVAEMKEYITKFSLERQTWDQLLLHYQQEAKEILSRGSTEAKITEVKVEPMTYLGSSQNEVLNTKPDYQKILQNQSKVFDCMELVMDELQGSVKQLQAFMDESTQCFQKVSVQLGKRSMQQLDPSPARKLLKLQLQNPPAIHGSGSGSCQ
T1 sequence (looked up) 4: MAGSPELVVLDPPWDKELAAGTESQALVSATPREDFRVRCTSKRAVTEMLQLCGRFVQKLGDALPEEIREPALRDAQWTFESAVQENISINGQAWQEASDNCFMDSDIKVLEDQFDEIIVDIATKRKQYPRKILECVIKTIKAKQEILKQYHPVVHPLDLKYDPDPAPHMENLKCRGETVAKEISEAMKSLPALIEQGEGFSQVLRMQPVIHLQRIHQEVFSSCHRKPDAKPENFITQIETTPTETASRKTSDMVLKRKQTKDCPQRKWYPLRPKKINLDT
Experiment: pull-down

B1: GST-KNL1^1904–2316 (domain or fragment, human, UniProt Q8NG31-2 1904-2316, looked up)
chain: EDLMLSQYVYRPKIQIYREDCEARRQKIEELKLSASNQDKLLVDINKNLWEKMRHCSDKELKAFGIYLNKIKSCFTKMTKVFTHQGKVALYGKLVQSAQNEREKLQIKIDEMDKILKKIDNCLTEMETETKNLEDEEKNNPVEEWDSEMRAAEKELEQLKTEEEELQRNLLELEVQKEQTLAQIDFMQKQRNRTEELLDQLSLSEWDVVEWSDDQAVFTFVYDTIQLTITFEESVVGFPFLDKRYRKIVDVNFQSLLDEDQAPPSSLLVHKLIFQYVEEKESWKKTCTTQHQLPKMLEEFSLVVHHCRLLGEEIEYLKRWGPNYNLMNIDINNNELRLLFSSSAAFAKFEITLFLSAYYPSVPLPSTIQNHVGNTSQDDIATILSKVPLENNYLKNVVKQIYQDLFQDCHFYH
  binding result: binds
